Laboratory results taken from publication PMC9135441.

Experiments:
CCCCCC(O)C=CC=O = experiment: purified protein; settings: NADPH
[1] = tested on: O=C[C@H](O)[C@@H](O)[C@H](O)[C@@H](O)CO; experiment: purified protein; settings: NADPH

Work on “aldose reductase (AKR1B1) (Homo sapiens)” yielded a Km (CCCCCC(O)C=CC=O) of 51 ± 5 µM and a Km [1] of 4260 ± 350 µM.
